Source: US20030153066A1 (University of California, published 2003)

Biological target: HIV-1 Gag Pr55 (wild-type) (HIV-1, UniProt P03348 1-512, N-terminal myristoylation (reactions with MCoA))
Test: cell-based or functional assay

B1: WGHP68-Tr1 (other)
chain: MADRLTRIAIVSEDKCKPKKCRQECKKSCPVVKTGKLCIEVSPVAKLAFISEELCIGCGICVKKCPFDAIEIINLPKDLEKDTTHRYGPNTFKLHRLPVPRPGQVLGLVGTNGIGKSTALKVLAGKLKPNLGRFKNPPDWQEILTYFRGSELQNYFTRILEDNLKAIIKPQYVDHIPKAVQGNVGQVLEQKDERDMKNELCVDLELNQVIDRNVGDLSGGELQRFAIAVVAVQSAEIYMFDEPSSYLDVKQRLKAARVIRSLLRSNSYVIVVEHDLSVLDYLSDFICCLYGKPGAYGVVTLPFSVREGINIFLAGFVPTENLRFRDESLTFKIAETQESAEEVATYQRYKYPTMSKTQGNFKLSVVEGEFTDSQIVVM
  amount of HIV-1 Gag protein in the medium of co-transfected Cos-1 cells (virion production): 4.7 fold
